This is an account of results in US20190153096A1 (COVAGEN, published 2019).

This assay concerns the target T1, Human C1q (EMD Millipore) (human, UniProt P02745 23-245; P02746 28-253; P02747 29-245).
T1 construct: Bought protein; the three subunits are added from general knowledge
Description: SPR (BIAcore), antibody immobilised on the chip, human C1q injected at 3.125-200 nM. On the technique in general: SPR reads the build-up and loss of mass on a sensor chip optically.
Description: Antibodies were coated onto a CMS chip via amine coupling at coating density of 5000 RU Human C1q (EMD Millipore) was injected in running buffer (PBS pH7.4, 0.05% TWEEN-20) at 200 nM and three-fold serial dilutions thereof at a flow rate of 30 μl/min. Binding was recorded, and KD was determined by curve fitting using the BIAcore software using a steady-state affinity model.

T1 sequence (P02745 23-245 limits assumed, chain 1 of 3): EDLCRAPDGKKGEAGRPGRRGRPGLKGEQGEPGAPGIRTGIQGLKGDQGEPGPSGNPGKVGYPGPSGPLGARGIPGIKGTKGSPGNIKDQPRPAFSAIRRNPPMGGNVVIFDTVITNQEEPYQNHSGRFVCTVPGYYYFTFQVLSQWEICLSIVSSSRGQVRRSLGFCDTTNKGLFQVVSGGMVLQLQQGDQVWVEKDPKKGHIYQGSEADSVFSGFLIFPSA
T1 sequence (P02746 28-253 limits assumed, chain 2 of 3): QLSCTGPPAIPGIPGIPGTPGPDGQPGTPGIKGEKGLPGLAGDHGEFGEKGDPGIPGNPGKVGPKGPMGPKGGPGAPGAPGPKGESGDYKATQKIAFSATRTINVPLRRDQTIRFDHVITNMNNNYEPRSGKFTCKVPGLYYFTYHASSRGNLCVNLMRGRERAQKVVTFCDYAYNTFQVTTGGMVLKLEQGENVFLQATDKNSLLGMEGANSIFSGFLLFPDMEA
T1 sequence (P02747 29-245 limits assumed, chain 3 of 3): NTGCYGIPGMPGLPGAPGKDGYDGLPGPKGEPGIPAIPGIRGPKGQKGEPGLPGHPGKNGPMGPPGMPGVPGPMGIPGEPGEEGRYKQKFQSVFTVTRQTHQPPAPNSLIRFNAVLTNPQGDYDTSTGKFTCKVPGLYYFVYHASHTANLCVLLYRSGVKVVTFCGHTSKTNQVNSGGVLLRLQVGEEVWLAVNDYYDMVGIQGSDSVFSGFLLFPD

B1: mAb1 DANAPA IgG1 (antibody)
heavy: QVQLQQSGAELARPGASVKMSCKASGYTFTRSTMHWVKQRPGQGLEWIGYINPSSAYTNYNQKFKDKATLTADKSSSTAYMQLSSLTSEDSAVYYCASPQVHYDYNGFPYWGQGTLVTVSAASTKGPSVFPLAPSSKSTSGGTAALGCLVKDYFPEPVTVSWNSGALTSGVHTFPAVLQSSGLYSLSSVVTVPSSSLGTQTYICNVNHKPSNTKVDKKVEPKSCDKTHTCPPCPAPELLGGPSVFLFPPKPKDTLMISRTPEVTCVVVAVSHEDPEVKFNWYVDGVEVHNAKTKPREEQYASTYRVVSVLTVLHQDWLNGKEYKCKVSNKALAAPIEKTISKAKGQPREPQVYTLPPSREEMTKNQVSLTCLVKGFYPSDIAVEWESNGQPENNYKTTPPVLDSDGSFFLYSKLTVDKSRWQQGNVFSCSVMHEALHNHYTQKSLSLSPGK
light: QVVLTQSPAIMSAFPGEKVTMTCSASSSVSYMNWYQQKSGTSPKRWIYDSSKLASGVPARFSGSGSGTSYSLTISSMETEDAATYYCQQWSRNPPTFGGGTKLQITRTVAAPSVFIFPPSDEQLKSGTASVVCLLNNFYPREAKVQWKVDNALQSGNSQESVTEQDSKDSTYSLSSTLTLSKADYEKHKVYACEVTHQGLSSPVTKSFNRGEC
notes: mAb1 with D265A, N297A, P329A (EU); also called DANAPA Fc mutated mAb1
Take B1: the binding result was “no binding (tested: 200 nM)”.
